Data on ten molecules can be found in article PMC3589125 (Structure (London, England : 1993), 2012).

The target of data set [1] is T1, JNK3α1 (Homo sapiens, UniProt P53779). As to the kind of experiment: FRET displacement of labeled JIP1 peptide, JNK3α1. Type of data set: binding. To be noted: FRET IC50 for displacement of labeled JIP1 peptide, Inactive JNK3α1.
For another data set, the target named is Inactive JNK1β1 (UniProt P45983-3 1-384). Description: FRET or BRET. A general note: Bioluminescence resonance energy transfer reports proximity on the nanometre scale.
For another data set, the target named is Active JNK1β1 (UniProt P45983-3 1-384, phosphorylated in the activation loop by incubation with active MKK4 and MKK7). As to the kind of experiment: FRET or BRET.
A further data set concerns the target JNK3α1 (39–422) (UniProt P53779-2 39-422). As to the kind of experiment: ITC. For orientation: Isothermal titration calorimetry measures the heat released or taken up as one component is titrated into another.
The next data set deals with Inactive JNK3α1, P53779. Description: FRET or BRET.
A further data set has as its target active JNK3α1 (39–422) (UniProt P53779).
The target of data set [2] is T1, JNK3α1. Description: Km of protein substrates for JNK3α1. It is filed as biochemical. To be noted: read-out: Km for JNK3α1; protein substrate.

Peptide text beside a SMILES is read from it.

By IC50 is commonly meant the concentration needed to halve the response being measured. A lower IC50 goes with greater potency in that assay. On to `CC(C)C[C@H](NC(=O)[C@H](CC(N)=O)NC(=O)[C@H](CC(C)C)NC(=O)[C@@H](NC(=O)[C@@H](NC(=O)[C@@H]1CCCN1C(=O)[C@H](CCCN=C(N)N)NC(=O)[C@H](CCCCN)NC(=O)[C@@H]1CCCN1C(=O)[C@@H](N)CCCN=C(N)N)[C@@H](C)O)[C@@H](C)O)C(=O)N[C@@H](Cc1ccccc1)C(=O)O` [pepJIP] (H-RPKRPTTLNLF-OH), for which the IC50 on JNK3α1 [1] was determined as 1.7 ± 0.4 µM.

`CC(C)C[C@H](NC(=O)[C@H](CO)NC(=O)CNC(=O)[C@@H]1CCCN1C(=O)[C@H](CCCNC(=N)N)NC(=O)[C@@H](NC(=O)[C@@H](NC(=O)[C@H](C)N)C(C)C)C(C)C)C(=O)N[C@@H](CC(=O)O)C(=O)N[C@@H](CC(C)C)C(=O)N1CCC[C@H]1C(=O)O` [pepSAB] (H-AVVRPGSLDLP-OH) returned an IC50 at JNK3α1 [1] of 834 ± 105 µM.

Turning to KHKHEMTLKFG [pepATF2Hu(46–56)], the 50% inhibitory concentration (IC50) in the data set with Inactive JNK1β1 worked out at 350 ± 12 µM; in the data set with Active JNK1β1 it was 169 ± 2 µM.

The Kd is the concentration at which binding is half-saturated. Read a high Kd as lower affinity. As to AVVRPGSLDLP [pepSABhu(40–350)], the Kd with JNK3α1 (39–422) turned out to be 17.2 ± 0.6 µM. The molecule also registered a dH with JNK3α1 (39–422) of -4.02 kcal/mol. In addition, the IC50 with Inactive JNK1β1 turned out to be 612 ± 21 µM; with Active JNK1β1, 386 ± 10 µM; in the data set with Inactive JNK3α1, P53779, 834 µM.

In the data set with JNK3α1 (39–422), RPKRPTTLNLF [pepJIPhu(157–167)] registered a Kd of 0.8 ± 0.1 µM. In addition, the dH with JNK3α1 (39–422) is -7.65 kcal/mol. Moreover, the IC50 with Inactive JNK1β1 stood at 2.5 ± 0.1 µM; in the data set with Active JNK1β1 it was 0.68 ± 0.02 µM; in the data set with Inactive JNK3α1, P53779, 1.7 µM.

On to RPKHPTTLNLF [JIP1 R160H], for which, in the data set with JNK3α1 (39–422), binding was characterised by a dissociation constant (Kd) of 11.7 ± 1 µM and the dH was -6.71 kcal/mol.

In the data set with JNK3α1 (39–422), RPKQPTTLNLF [JIP1 R160Q] gave a Kd of 32.1 ± 3.2 µM and a dH of -5.46 kcal/mol.

Turning to RPKRPGTLNLF [JIP1 T162G], in the data set with JNK3α1 (39–422), the Kd was determined as 4.9 ± 0.5 µM and the dH is -7.11 kcal/mol.

B1: His-SAB (1–390) (domain or fragment)
chain: MDAALKRSRSEEPAEILPPARDEEEEEEEGMEQGLEEEEEVDPRIQGELEKLNQSTDDINRRETELEDARQKFRSVLVEATVKLDELVKKIGKAVEDSKPYWEARRVARQAQLEAQKATQDFQRATEVLRAAKETISLAEQRLLEDDKRQFDSAWQEMLNHATQRVMEAEQTKTRSELVHKETAARYNAAMGRMRQLEKKLKRAINKSKPYFELKAKYYVQLEQLKKTVDDLQAKLTLAKGEYKMALKNLEMISDEIHERRRSSAMGPRGCGVGAEGSSTSVEDLPGSKPEPDAISVASEAFEDDSCSNFVSEDDSETQSVSSFSSGPTSPSEMPDQFPAVVRPGSLDLPSPVSLSEFGMMFPVLGPRSECSGASSPECEVERGDRAEGA
As to B1, the Km of SAB (1–390) as substrate of JNK3α1 with active JNK3α1 (39–422) stood at 0.77 µM.

B2: SAB (1–390): recombinant SAB protein substrate for JNK kinase assays (protein)
chain: B1 chain
modifications: left off: His, end not stated, kept
The term Km denotes the concentration of substrate that gives half-maximal velocity. As for B2, the Km with JNK3α1 [2] came to 0.77 ± 0.09 µM.
